The numbers were not newly measured in US20200069786A1, “COMPOSITION AND PROCESS FOR PREPARING VACCINE” (TREOS BIO ZRT., priority 2018, published 2020), which cites them from elsewhere.

The data set deals with TSA. The following applies: TSA expression rate in Esophageal.

B1: TTK (protein, UniProt P33981 1-857, looked up)
Dual specificity protein …: MESEDLSGRELTIDSIMNKVRDIKNKFKNEDLTDELSLNKISADTTDNSGTVNQIMMMANNPEDWLSLLLKLEKNSVPLSDALLNKLIGRYSQAIEALPPDKYGQNESFARIQVRFAELKAIQEPDDARDYFQMARANCKKFAFVHISFAQFELSQGNVKKSKQLLQKAVERGAVPLEMLEIALRNLNLQKKQLLSEEEKKNLSASTVLTAQESFSGSLGHLQNRNNSCDSRGQTTKARFLYGENMPPQDAEIGYRNSLRQTNKTKQSCPFGRVPVNLLNSPDCDVKTDDSVVPCFMKRQTSRSECRDLVVPGSKPSGNDSCELRNLKSVQNSHFKEPLVSDEKSSELIITDSITLKNKTESSLLAKLEETKEYQEPEVPESNQKQWQSKRKSECINQNPAASSNHWQIPELARKVNTEQKHTTFEQPVFSVSKQSPPISTSKWFDPKSICKTPSSNTLDDYMSCFRTPVVKNDFPPACQLSTPYGQPACFQQQQHQILATPLQNLQVLASSSANECISVKGRIYSILKQIGSGGSSKVFQVLNEKKQIYAIKYVNLEEADNQTLDSYRNEIAYLNKLQQHSDKIIRLYDYEITDQYIYMVMECGNIDLNSWLKKKKSIDPWERKSYWKNMLEAVHTIHQHGIVHSDLKPANFLIVDGMLKLIDFGIANQMQPDTTSVVKDSQVGTVNYMPPEAIKDMSSSRENGKSKSKISPKSDVWSLGCILYYMTYGKTPFQQIINQISKLHAIIDPNHEIEFPDIPEKDLQDVLKCCLKRDPKQRISIPELLAHPYVQIQTHPVNQMAKGTTEEMKYVLGQLVGLNSPNSILKAAKTLYEHYSGGESHNSSSSKTFEKKRGKK
With B1, the “Expression Rate (ER) %” value is 97%.
